The values that follow come from patent publication US20230399608A1, “PROCESS FOR ESTABLISHING A HUMAN TESTICULAR TISSUE CULTURE SYSTEM” (PATERNA BIOSCIENCES INC., priority 2021, published 2023).

The labels stand for the following.
B1: Neurturin (NRTN): ligand of GFRA1/GFRA2/RET/GFRA3 (protein, UniProt Q99748 96-197, looked up)
Neurturin: ARLGARPCGLRELEVRVSELGLGYASDETVLFRYCAGACEAAARVYDLGLRRLRQRRRLRRERVRAQPCCRPTAYEDEVSFLDAHSRYHTVHELSARECACV
B2: rh HB-EGF: ligand of CD9 (protein, UniProt Q99075 63-148, looked up)
Heparin-binding EGF-like …: DLQEADLDLLRVTLSSKPQALATPNKEEHGKRKKKGKGLGKKRDPCLRKYKDFCIHGECKYVKELRAPSCICHPGYHGERCHGLSL
B3: Artemin (ARTN): ligand of GFRA1/GFRA2/RET/GFRA3 (protein, UniProt Q5T4W7 108-220, looked up)
Artemin: AGGPGSRARAAGARGCRLRSQLVPVRALGLGHRSDELVRFRFCSGSCRRARSPHDLSLASLLGAGALRPPPGSRPVSQPCCRPTRYEAVSFMDVNSTWRTVDRLSATACGCLG
B4: GDF6/BMP13: ligand of BMPR1B/BMPR1A/BMPR2 (protein, UniProt Q6KF10 336-455, looked up)
Growth/differentiation factor …: TAFASRHGKRHGKKSRLRCSKKPLHVNFKELGWDDWIIAPLEYEAYHCEGVCDFPLRSHLEPTNHAIIQTLMNSMDPGSTPPSCCVPTKLTPISILYIDAGNNVVYKQYEDMVVESCGCR
B5: DLK2: ligand of NOTCH1 (protein, UniProt Q6UY11 27-383, looked up)
Protein delta homolog 2: DDCSSHCDLAHGCCAPDGSCRCDPGWEGLHCERCVRMPGCQHGTCHQPWQCICHSGWAGKFCDKDEHICTTQSPCQNGGQCMYDGGGEYHCVCLPGFHGRDCERKAGPCEQAGSPCRNGGQCQDDQGFALNFTCRCLVGFVGARCEVNVDDCLMRPCANGATCLDGINRFSCLCPEGFAGRFCTINLDDCASRPCQRGARCRDRVHDFDCLCPSGYGGKTCELVLPVPDPPTTVDTPLGPTSAVVVPATGPAPHSAGAGLLRISVKEVVRRQEAGLGEPSLVALVVFGALTAALVLATVLLTLRAWRRGVCPPGPCCYPAPHYAPACQDQECQVSMLPAGLPLPRDLPPEPGKTTAL
B6: GDNF: recombinant human glial cell line-derived neurotrophic factor (protein, UniProt P39905 78-211, looked up)
Glial cell line-derived …: SPDKQMAVLPRRERNRQAAAANPENSRGKGRRGQRGKNRGCVLTAIHLNVTDLGLGYETKEELIFRYCSGSCDAAETTYDKILKNLSRNRRLVSDKVGQACCRPIAFDDDLSFLDDNLVYHILRKHSAKRCGCI
B7: rh Midkine Protein: ligand of GPC2 (protein, UniProt P21741 21-143, looked up)
Midkine: VAKKKDKVKKGGPGSECAEWAWGPCTPSSKDCGVGFREGTCGAQTQRIRCRVPCNWKKEFGADCKYKFENWGACDGGTGTKVRQGTLKKARYNAQCQETIRVTKPCTPKTKAKAKAKKGKGKD
B8: rh MIF: ligand of CXCR4/CD74 (protein, UniProt P14174 2-115, looked up)
Macrophage migration …: PMFIVNTNVPRASVPDGFLSELTQQLAQATGKPPQYIAVHVVPDQLMAFGGSSEPCALCSLHSIGKIGGAQNRSYSKLLCGLLAERLRISPDRVYINYYDMNAANVGWNNSTFA
B9: GDF9: ligand of ACVR2A/BMPR1B/BMPR1A/BMPR2/TGFBR1 (protein, UniProt O60383 320-454, looked up)
Growth/differentiation factor …: GQETVSSELKKPLGPASFNLSEYFRQFLLPQNECELHDFRLSFSQLKWDNWIVAPHRYNPRYCKGDCPRAVGHRYGSPVHTMVQNIIYEKLDSSVPRPSCVPAKYSPLSVLTIEPDGSIAYKEYEDMIATKCTCR
B10: BMP8b: ligand of BMPR1B/BMPR1A/BMPR2 (protein, UniProt P34820 264-402, looked up)
Bone morphogenetic protein 8B: AVRPLRRRQPKKSNELPQANRLPGIFDDVHGSHGRQVCRRHELYVSFQDLGWLDWVIAPQGYSAYYCEGECSFPLDSCMNATNHAILQSLVHLMMPDAVPKACCAPTKLSATSVLYYDSSNNVILRKHRNMVVKACGCH
B11: CNTN2: ligand of CNTNAP2 (protein, UniProt Q02246 31-1012, looked up)
Contactin-2: SQTTFGPVFEDQPLSVLFPEESTEEQVLLACRARASPPATYRWKMNGTEMKLEPGSRHQLVGGNLVIMNPTKAQDAGVYQCLASNPVGTVVSREAILRFGFLQEFSKEERDPVKAHEGWGVMLPCNPPAHYPGLSYRWLLNEFPNFIPTDGRHFVSQTTGNLYIARTNASDLGNYSCLATSHMDFSTKSVFSKFAQLNLAAEDTRLFAPSIKARFPAETYALVGQQVTLECFAFGNPVPRIKWRKVDGSLSPQWTTAEPTLQIPSVSFEDEGTYECEAENSKGRDTVQGRIIVQAQPEWLKVISDTEADIGSNLRWGCAAAGKPRPTVRWLRNGEPLASQNRVEVLAGDLRFSKLSLEDSGMYQCVAENKHGTIYASAELAVQALAPDFRLNPVRRLIPAARGGEILIPCQPRAAPKAVVLWSKGTEILVNSSRVTVTPDGTLIIRNISRSDEGKYTCFAENFMGKANSTGILSVRDATKITLAPSSADINLGDNLTLQCHASHDPTMDLTFTWTLDDFPIDFDKPGGHYRRTNVKETIGDLTILNAQLRHGGKYTCMAQTVVDSASKEATVLVRGPPGPPGGVVVRDIGDTTIQLSWSRGFDNHSPIAKYTLQARTPPAGKWKQVRTNPANIEGNAETAQVLGLTPWMDYEFRVIASNILGTGEPSGPSSKIRTREAAPSVAPSGLSGGGGAPGELIVNWTPMSREYQNGDGFGYLLSFRRQGSTHWQTARVPGADAQYFVYSNESVRPYTPFEVKIRSYNRRGDGPESLTALVYSAEEEPRVAPTKVWAKGVSSSEMNVTWEPVQQDMNGILLGYEIRYWKAGDKEAAADRVRTAGLDTSARVSGLHPNTKYHVTVRAYNRAGTGPASPSANATTMKPPPRRPPGNISWTFSSSSLSIKWDPVVPFRNESAVTGYKMLYQNDLHLTPTLHLTGKNWIEIPVPEDIGHALVQIRTTGPGGDGIPAEVHIVRNGGTSMMVEN
B12: GDF11/BMP11: ligand of BMPR1B/BMPR1A/BMPR2/ACVR2B/ACVR1B/ACVR2A (protein, UniProt O95390 299-407, looked up)
Growth/differentiation factor …: NLGLDCDEHSSESRCCRYPLTVDFEAFGWDWIIAPKRYKANYCSGQCEYMFMQKYPHTHLVQQANPRGSAGPCCTPTKMSPINMLYFNDKQQIIYGKIPGMVVDRCGCS
B13: WNT-3A: ligand of RYK/FZD3/FZD7/FZD1/LRP6 (protein, UniProt P56704 19-352, looked up)
Protein Wnt-3a: SYPIWWSLAVGPQYSSLGSQPILCASIPGLVPKQLRFCRNYVEIMPSVAEGIKIGIQECQHQFRGRRWNCTTVHDSLAIFGPVLDKATRESAFVHAIASAGVAFAVTRSCAEGTAAICGCSSRHQGSPGKGWKWGGCSEDIEFGGMVSREFADARENRPDARSAMNRHNNEAGRQAIASHMHLKCKCHGLSGSCEVKTCWWSQPDFRAIGDFLKDKYDSASEMVVEKHRESRGWVETLRPRYTYFKVPTERDLVYYEASPNFCEPNPETGSFGTRDRTCNVSSHGIDGCDLLCCGRGHNARAERRREKCRCVFHWCCYVSCQECTRVYDVHTCK
B14: WNT-1: ligand of RYK/FZD3/FZD7/FZD1/ROR2/LRP6 (protein, UniProt P04628 28-370, looked up)
Proto-oncogene Wnt-1: ANSSGRWWGIVNVASSTNLLTDSKSLQLVLEPSLQLLSRKQRRLIRQNPGILHSVSGGLQSAVRECKWQFRNRRWNCPTAPGPHLFGKIVNRGCRETAFIFAITSAGVTHSVARSCSEGSIESCTCDYRRRGPGGPDWHWGGCSDNIDFGRLFGREFVDSGEKGRDLRFLMNLHNNEAGRTTVFSEMRQECKCHGMSGSCTVRTCWMRLPTLRAVGDVLRDRFDGASRVLYGNRGSNRASRAELLRLEPEDPAHKPPSPHDLVYFEKSPNFCTYSGRLGTAGTAGRACNSSSPALDGCELLCCGRGHRTRTQRVTERCNCTFHWCCHVSCRNCTHTRVLHECL

The subject of this test is testicular germ cell proliferation. The experiment in a line: Screen of SSC / differentiating spermatogonia receptor ligands in the iterative culture process. The test is classed as cell-based, human. To be noted: ligand at the concentration listed in Table 5; effective to date at improving germ cell proliferation. An excerpt:
A process for identification and selection of receptor ligands capable of improving testicular germ cell proliferation was developed. The process uses expression data obtained by mining scRNA-seq data obtained from testicular tissue (FIG. 27). The process systematically prioritizes candidates for spermatogonia ligands through a series of bioinformatics analyses and filtering. The process comprises identifying and selecting potential ligands based on their receptor expression in State 1 SSCs (active stem cells) and State 2/3 differentiating spermatogonia (differentiated germ cells with strong proliferation ability), or any combination thereof.
More specifically, the approach was based on the single-cell RNA sequencing transcriptome profile of the adult human testis atlas (Guo, J., Grow, E. J., Mlcochova, H., Maher, G. J., Lindskog, C., Nie, X., Guo, Y., Takei, Y., Yun, J., Cai, L., et al. (2018). The adult human testis transcriptional cell atlas. Cell Research 28, 1141. 10.1038/s41422-018-0099-2; the disclosure of all of which is incorporated herein in its entirety), which provides a comprehensive characterization of cell types in the human adult testis. Pseudo-bulk RNA-seq analysis was used, which involves aggregating individual cells into groups to enhance the receptor gene expression signal on SSCs and differentiating spermatogonia. Each individual cell is assigned to its corresponding cell type cluster based and summing the expression values of all cells within each cluster to create pseudo-bulk samples.
The CellTalkDB database was used to identify receptors expressed in SSCs/differentiating spermatogonia. Specifically, the receptors whose expression in SSCs/differentiating spermatogonia ranks within the top 150 were selected, as expression levels below this point are generally low in these cell populations. […] This filtering step helps to focus on receptors that are more specific to the target cell populations. Using the CellTalkDB database, the corresponding ligands for the selected receptors were then identified. The ligand candidates were prioritized based on their expression levels in the testes, and their known functionality.
The identified ligands were then used in the iterative process of the instant disclosure for identifying culture conditions that support testicular germ cell proliferation in vitro to refine the culture conditions.
As to `C[C@]12CC[C@H]3[C@@H](CCC4=CC(=O)CC[C@@]43C)[C@@H]1CC[C@@H]2O` [Testosterone, reference compound], the Effective entry is on record as “Yes”. Under FGF2: basic fibroblast growth factor stands “Yes”; under rh CXCL12: chemokine; ligand of CXCR4, “No”. Then “rh LIF: leukemia inhibitory factor; ligand of IL6ST/LIFR”, with “Yes”. Then rh Secretin: ligand of VIPR2, with “No”; and rh beta-NGF: ligand of KIDINS220, with “Yes”.

On to B1, for which the Effective entry is “Yes”.

Consider B2, for which the Effective entry is reported as “Yes”. Then B3, with “No”; and B4, with “No”. Under B5 stands “No”. Then B6, with “Yes”; and B7, with “Yes”; and B8, with “Yes”. Consider B9, for which the Effective result is listed as “No”. Under B10 stands “No”; under B11, “No”. Then B12, with “No”; and B13, with “Yes”.

With B14, the Effective result is recorded as “No”.
